Earlier results in article PMC3025320.

Legend:
C3d C3d (Homo sapiens) = C3d C3d (Homo sapiens) (UniProt P01024); assay: ITC
[1] = target: C3d C3d (996-1303) (Homo sapiens) (UniProt P01024); assay: ITC
Chain of C3d C3d (996-1303) (Homo sapiens) (P01024 996-1303): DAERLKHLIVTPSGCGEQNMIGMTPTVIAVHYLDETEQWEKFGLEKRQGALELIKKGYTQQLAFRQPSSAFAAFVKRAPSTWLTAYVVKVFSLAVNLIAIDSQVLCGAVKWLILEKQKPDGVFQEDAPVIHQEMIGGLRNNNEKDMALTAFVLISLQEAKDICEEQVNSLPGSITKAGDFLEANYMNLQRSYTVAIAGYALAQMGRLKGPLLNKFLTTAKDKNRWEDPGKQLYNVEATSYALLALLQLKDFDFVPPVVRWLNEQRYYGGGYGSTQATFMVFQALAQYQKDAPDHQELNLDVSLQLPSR

Chain of C3d C3d (Homo sapiens) (P01024 1002-1303): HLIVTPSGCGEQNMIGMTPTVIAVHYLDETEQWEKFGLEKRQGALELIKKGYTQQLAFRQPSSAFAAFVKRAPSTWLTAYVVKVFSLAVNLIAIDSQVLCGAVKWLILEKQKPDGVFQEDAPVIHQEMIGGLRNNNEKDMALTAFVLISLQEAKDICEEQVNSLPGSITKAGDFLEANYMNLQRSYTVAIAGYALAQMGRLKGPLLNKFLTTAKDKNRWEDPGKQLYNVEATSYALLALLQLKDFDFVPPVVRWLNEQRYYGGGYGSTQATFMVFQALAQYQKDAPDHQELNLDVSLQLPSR
Chain of Efb-C Efb-C (P68799 101-165): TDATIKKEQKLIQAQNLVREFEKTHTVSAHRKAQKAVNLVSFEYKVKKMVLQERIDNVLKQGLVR

Question: For Efb-C Efb-C (from UniProt P68799), which Kd (C3d C3d (Homo sapiens)) is on record?
Answer: Its Kd is 2 nM.

Question: Which Kd (C3d C3d (Homo sapiens)) does the source give for “Sbi-III-IV domains III-IV (from UniProt A7X659)” here?
Answer: Its Kd is 400 nM.

Question: With “Sbi-III–IV domains III-IV (from UniProt A7X659)” as the substance, how does the Kd [1] read?
Answer: Its Kd is 400 nM.

Question: With Sbi-IV domain IV (from UniProt A7X659) as the substance, how does the Kd [1] read?
Answer: Its Kd is 360 nM.

Question: What about the Kd (C3d C3d (Homo sapiens)) of the same substance?
Answer: The Kd was 360 nM.
